Reference: the supplement of paper PMC10126150
± gives the standard deviation of the averaged measurements.

Each sequence was assayed on ATP (assay: switch fluorescence ratio, 500 uM ATP over buffer (Cy3 cluster intensity, sum of 5 cycles each) (fold (ratio)); higher = stronger signal-on switching upon ATP binding; sequences stand for … in TCGTCGGCAGCGTCAGATGTGTATAAGAGACAGTTTTTTTTTTTTTTTTTTTTTTTTT…TC). Conditions: aptamer strand: ATP DNA aptamer (quencher-CACCTGGGGGAGTATTGCGGAGGAAGG + anchor), 100 nM annealed; ATP concentration: 500 uM.
Outline: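 Five buffer/ATP imaging cycles were run on Cy3-labelled switching-strand clusters on a modified Illumina MiSeq flow-cell, with NaOH stripping and re-annealing between cycles. In each cycle, clusters annealed to 100 nM quencher-labelled ATP aptamer were imaged in selection buffer, then after 15 min with 500 uM ATP at 22 °C. Per cluster, the fluorescence ratio is summed target-cycle over summed buffer-cycle Cy3 intensity, averaged per switch-domain sequence. Only clusters within 100-1000 RFU were kept.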
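Also: ATP exposure 15 min at 22 °C before imaging.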

Row | Sequence | switch fluorescence ratio
1 | TAATCTAATA | 0.987 ± 0.046
2 | GACCTTGACG | 1.02 ± 0.022
3 | GTTTTGTTCC | 1.019 ± 0.0041
4 | GCTCGGTCGG | 1.02 ± 0.037
5 | GTTTAGGATT | 1.21 ± 0.33
6 | CTGTAACGAG | 1.008 ± 0.0075
7 | CTGTTTCACA | 0.949 ± 0.046
8 | TAGGGATTTG | 1.01 ± 0.014
9 | AGGCATGATG | 1.0051 ± 0.00033
10 | TGAGGGATGT | 1.04 ± 0.059
11 | AATTGAACGG | 0.9995 ± 0.0042
12 | TTAAGAATTC | 0.954 ± 0.021
13 | GGGGGAATAA | 1.54 ± 0.73
14 | CGTCGGAGTG | 1.01 ± 0.022
15 | GGGGTTCAGC | 0.978 ± 0.038
16 | CCATCATAGG | 1.0149 ± 0.00068
17 | ACCGGGTTGG | 0.999 ± 0.01
18 | TTAAAGCGGG | 1.01 ± 0.012
19 | ACATATAGAG | 1.051 ± 0.0097
20 | CTTGGGTATA | 1.25 ± 0.29
21 | TGTTGTTTTG | 1 ± 0.042
22 | TTTTGCTGGA | 1.02 ± 0.031
23 | TGCTTTACAT | 1.03 ± 0.014
24 | GAAACGGTGT | 1.02 ± 0.031
25 | TATTACAGGT | 1.03 ± 0.0089

Row | Sequence | switch fluorescence ratio
26 | ACATCGGATG | 0.995 ± 0.025
27 | CGTAAATTAT | 0.993 ± 0.029
28 | CGTTAGGGGA | 0.999 ± 0.011
29 | AAGGCTGGCT | 0.99 ± 0.027
30 | AGTTGAGCAG | 1.02 ± 0.021
31 | AGTCATTGTT | 0.989 ± 0.012
32 | ATTGCTTACG | 1.14 ± 0.19
33 | ATCGACATTA | 1.01 ± 0.017
34 | CCAGTTGATG | 0.991 ± 0.057
35 | AGAATGTATG | 0.994 ± 0.021
36 | GTGAGATGTT | 1 ± 0.016
37 | TGCATTAGGA | 1.02 ± 0.024
38 | AATGCAGTGC | 1.26 ± 0.09
39 | GACAGCCGGT | 1.01 ± 0.029
40 | AAGATCTGCC | 1.04 ± 0.021
41 | GGGCCGTTGG | 0.976 ± 0.042
42 | TAAGGCGGGC | 0.988 ± 0.032
43 | GTGTTTTTGT | 0.9723 ± 0.0083
44 | GTGTCGGGAA | 0.9838 ± 0.0023
45 | GGCGCACGGG | 1.02 ± 0.026
46 | TAATAGACGG | 1 ± 0.026
47 | GGCGTTTGGG | 0.991 ± 0.033
48 | GATATATTGC | 1.03 ± 0.012
49 | CCATAGTGAC | 2.18 ± 0.18
50 | ATTTTTGTTA | 0.986 ± 0.054

Row | Sequence | switch fluorescence ratio
51 | TGTGGTAGCC | 1.022 ± 0.0018
52 | TCGGGAGAGC | 1.04 ± 0.038
53 | AGTGGACTAG | 0.989 ± 0.026
54 | GGTGCGTTGG | 1.03 ± 0.042
55 | CCAGGGCGGC | 0.854 ± 0.019
56 | TGGTTTATAC | 1.32 ± 0.43
57 | TACTCTCGGT | 1.035 ± 0.0057
58 | GTATGCTAAC | 1 ± 0.043
59 | GAGGTTCGGT | 1.019 ± 0.0037
60 | TTTTAGTTCG | 1 ± 0.028
61 | CCAGTAATTG | 1.04 ± 0.022
62 | AGGGGCAGAG | 1.06 ± 0.092
63 | ATGGGGTACA | 1.033 ± 0.0032
64 | ATATGGGTTC | 1 ± 0.026
65 | TAGTGAACTT | 1.01 ± 0.0054
66 | TTACAAGTGT | 0.993 ± 0.016
67 | ATTGGGAGGA | 1 ± 0.014
68 | ATATGTAAAC | 1 ± 0.047
69 | TTTGATAGTC | 0.966 ± 0.07
70 | TCGAGGAATT | 1.02 ± 0.02
71 | GCAAATGGGG | 1.02 ± 0.033
72 | AAGTGGGGTG | 0.982 ± 0.019
73 | TGCAGCTGGT | 0.98 ± 0.021
74 | AAGGGGACGA | 0.978 ± 0.033
75 | AGATTCATGT | 0.988 ± 0.018

Row | Sequence | switch fluorescence ratio
76 | TCGGTGCCTG | 1.01 ± 0.36
77 | GTTTGTACAC | 0.986 ± 0.054
78 | CTTTTTGTGG | 0.9838 ± 0.0075
79 | AGGACTCGGG | 1.04 ± 0.068
80 | ATAAAGAAGT | 1.007 ± 0.0052
81 | AGCTCGGCGC | 1.02 ± 0.064
82 | GGATTGCGG | 1.008 ± 0.01
83 | AAGGATGCGA | 1.039 ± 0.0079
84 | CTAGCCATTG | 0.995 ± 0.022
85 | CGGGGGTTTT | 0.994 ± 0.034
86 | GGCGGGCATG | 1.021 ± 0.0011
87 | CGCTCAGGAC | 1.29 ± 0.1
88 | ATTCTTTGGG | 1.01 ± 0.02
89 | TAAGGCCCGG | 1 ± 0.03
90 | TATGGAGAGC | 1.02 ± 0.038
91 | GTGTTTTGGT | 0.98 ± 0.024
92 | CCATTCCCAT | 1.26 ± 0.28
93 | TGGGGGAGTA | 0.952 ± 0.018
94 | GCGTGCTGAA | 1.04 ± 0.043
95 | GTTGAAGTTT | 0.9846 ± 0.0073
96 | TTTATACCAG | 1.004 ± 0.0066
97 | GGCCGTGGGC | 1 ± 0.043
98 | TTCGGTAGCG | 0.996 ± 0.046
99 | CACGGGTGGC | 1.152 ± 0.011
100 | GGGGTAATCC | 1.07 ± 0.14

Row | Sequence | switch fluorescence ratio
101 | GGGGCCGTCA | 0.987 ± 0.031
102 | GCATGTACTC | 3.36 ± 0.63
103 | TAATGAGGTC | 0.99 ± 0.046
104 | CCGGGGAATG | 1.04 ± 0.052
105 | AGAATAGTGG | 0.96 ± 0.037
106 | AGGTACTAGG | 1.036 ± 0.0041
107 | TCTAAGTTA | 0.998 ± 0.012
108 | AGGGTTCTTT | 1 ± 0.029
109 | TAGTTTGTTT | 1.02 ± 0.074
110 | GGGCTAATGT | 0.988 ± 0.047
111 | TGGGTATAGA | 1.01 ± 0.032
112 | TTTGAGCATT | 1.04 ± 0.043
113 | GTGGAGGTTG | 0.984 ± 0.03
114 | CAGGCGGTTT | 0.969 ± 0.029
115 | CCTGCTGGCG | 1.04 ± 0.12
116 | CGGCGTACTA | 1.06 ± 0.014
117 | TTGGAAAGCA | 1.03 ± 0.027
118 | GTGTCAAGTA | 0.961 ± 0.016
119 | CGGGTATGAT | 1.031 ± 0.0092
120 | ATGCGATGTA | 1.04 ± 0.046
121 | TAGGATACTT | 0.9769 ± 0.0016
122 | GGGGGGTTAA | 1.02 ± 0.028
123 | GTATTGTTTT | 1.14 ± 0.16
124 | ACGTTTTGTG | 0.96 ± 0.028
125 | AAATTTGAAT | 1.0094 ± 0.00021

Row | Sequence | switch fluorescence ratio
126 | AAGGTGCAAG | 1.03 ± 0.053
127 | TGGCAAAGGA | 0.989 ± 0.026
128 | GTTATAGGGT | 1.01 ± 0.02
129 | TTGGGGGAGC | 0.976 ± 0.018
130 | TATGTGGACT | 1 ± 0.057
131 | AAGAACGGCG | 1.01 ± 0.052
132 | TTAAGACGTA | 1.03 ± 0.063
133 | TTTTGATCGC | 1.36 ± 0.5
134 | GTAATTCAGA | 0.99 ± 0.037
135 | GCTATCACCA | 1.31 ± 0.32
136 | TCGAGAGGGT | 0.996 ± 0.015
137 | TGATGGGTTA | 0.962 ± 0.029
138 | GGGTACCTGT | 1.01 ± 0.034
139 | TAATCTCCGG | 1.04 ± 0.04
140 | CCCCACGGCC | 1.16 ± 0.028
141 | TTGGGCAGTG | 1.02 ± 0.045
142 | TTAATTAAAA | 0.962 ± 0.043
143 | TTTTCCCTAT | 1.41 ± 0.71
144 | TAATATTCAA | 1.03 ± 0.014
145 | AACAGTTAGG | 0.9762 ± 0.0069
146 | TTTCAGCTGG | 0.997 ± 0.027
147 | AAAAAAGAGA | 0.977 ± 0.046
148 | TTGCTTATCG | 1.021 ± 0.0047
149 | TGGGTTTTAA | 0.999 ± 0.025
150 | CGGGGTTCGA | 1 ± 0.011

Row | Sequence | switch fluorescence ratio
151 | CCGTCAACTA | 1.96 ± 0.22
152 | TGTGGGTCGG | 0.968 ± 0.026
153 | GGGGGGTCAG | 1.01 ± 0.025
154 | TTGTAAAA | 0.95579 ± 0.00088
155 | AGTGGGTTCA | 0.9842 ± 0.0034
156 | CGTATCAAAA | 1.02 ± 0.019
157 | TTGGAGGGG | 0.988 ± 0.025
158 | AATGGGGTCA | 0.991 ± 0.024
159 | AATTATTGTA | 0.979 ± 0.049
160 | AATCTAGTGT | 0.996 ± 0.019
161 | GTTTTGGGTA | 1.04 ± 0.041
162 | CCATGTTGCG | 0.982 ± 0.012
163 | GAAATAACTC | 1.36 ± 0.43
164 | CAGATATTGG | 1.02 ± 0.023
165 | GAACCTGTGT | 0.993 ± 0.052
166 | CCATGGAGTA | 1 ± 0.019
167 | CGGGGGCTTT | 0.99 ± 0.017
168 | ATAAGGCAGG | 0.999 ± 0.024
169 | TTTGGTTAC | 1.05 ± 0.023
170 | AACCTTTTTT | 1.03 ± 0.0037
171 | GTTTGGTGAG | 1.01 ± 0.021
172 | CGGAGCAGGA | 1.48 ± 0.17
173 | ATGCGTATTT | 0.975 ± 0.039
174 | AGAGGTACAC | 1 ± 0.021
175 | TTTTCTGTTC | 0.988 ± 0.044

Row | Sequence | switch fluorescence ratio
176 | TGAGAGGCGA | 1.01 ± 0.011
177 | TAGAGGATGC | 0.998 ± 0.07
178 | TCCTGAGTTT | 0.991 ± 0.047
179 | TTTGGGGGCT | 1.01 ± 0.04
180 | TTTCAGACAG | 0.9921 ± 0.0014
181 | TCAGTGTGCC | 0.995 ± 0.03
182 | TAAGAAGGGG | 1.02 ± 0.023
183 | GGTAGTTGGT | 1.01 ± 0.011
184 | TAAGTATAGT | 1.0211 ± 0.00015
185 | CGACATGGTC | 1.02 ± 0.015
186 | TCACGGGGGA | 1.03 ± 0.039
187 | ACGAGAGAAA | 0.974 ± 0.017
188 | AACTAGATG | 0.982 ± 0.025
189 | TTCTTGGACG | 1.05 ± 0.16
190 | CCTGGGGGGG | 1.03 ± 0.05
191 | GCCGGGCTTG | 1.02 ± 0.017
192 | AAGTCCGGGC | 1.02 ± 0.018
193 | ATTGGAATTA | 0.985 ± 0.047
194 | CCAGTAGGTC | 1.03 ± 0.022
195 | TTAAATCGGC | 0.991 ± 0.043
196 | AATACAGAGG | 1.0069 ± 0.00059
197 | TGCGCCCGTT | 1 ± 0.033
198 | ACATGTAGCG | 0.99 ± 0.021
199 | AGGGTGGGGA | 1.01 ± 0.036
200 | AAACGTATGT | 0.9984 ± 0.0079
